Assay results reported in FireProtDB (doi:10.1021/bi0015717).
Where “and” joins values, the source holds several entries; their conditions need not be identical. Equal values may be shown once.

B1: Lysozyme C, P61626 (parent)
chain: MKALIVLGLVLLSVTVQGKVFERCELARTLKRLGMDGYRGISLANWMCLAKWESGYNTRATNYNAGDRSTDYGIFQINSRYWCNDGKTPGAVNACHLSCSALLQDNIADAVACAKRVVRDPQGIRAWVAWRNRCQNRDVRQYVQGCGV

Variants of: B1
Conditions: Homo sapiens; pH 2.68; Thermal; DSC; glycine-HCl 0.05 M; reversible: yes; structure 1LZ1; whole UniProt chain shown

Variant	Tm	unfolding enthalpy (calorimetric)
MKALIVLGLVLLSVTVQGKVFERCELARTLKRLGMDGYRGISLANWMCLAKWESGYNTRATNYNAGDRSTDYGIFQINSRYWCNDGKTPGAFNACHLSCSALLQDNIADAVACAKRVVRDPQGIRAWVAWRNRCQNRDVRQYVQGCGV [V92F]	63.6 °C	108 kcal/mol
MKALIVLGLVLLSVTVQGKFFERCELARTLKRLGMDGYRGISLANWMCLAKWESGYNTRATNYNAGDRSTDYGIFQINSRYWCNDGKTPGAVNACHLSCSALLQDNIADAVACAKRVVRDPQGIRAWVAWRNRCQNRDVRQYVQGCGV [V20F]	62 °C	106 kcal/mol

Same assay, conditions: Homo sapiens; pH 2.7; 64.9 °C; Thermal; DSC; glycine-HCl 0.05 M; reversible: yes; structure 1LZ1; whole UniProt chain shown

Variant	ddG of mutation (higher = less stable)
MKALIVLGLVLLSVTVQGKVFERCELARTLKRLGMDGYRGISLANWMCLAKWESGYNTRATNYNAGDRSTDYGIFQINSRYWCNDGKTPGAFNACHLSCSALLQDNIADAVACAKRVVRDPQGIRAWVAWRNRCQNRDVRQYVQGCGV [V92F]	0.29 kcal/mol
MKALIVLGLVLLSVTVQGKVFERCELARTLKRLGMDGYRGISLANWMCLAKWESGYNTRATNYNAGDRSTDYGIFQINSRYWCNDGKTPGAINACHLSCSALLQDNIADAVACAKRVVRDPQGIRAWVAWRNRCQNRDVRQYVQGCGV [V92I]	-0.45 kcal/mol
MKALIVLGLVLLSVTVQGKFFERCELARTLKRLGMDGYRGISLANWMCLAKWESGYNTRATNYNAGDRSTDYGIFQINSRYWCNDGKTPGAVNACHLSCSALLQDNIADAVACAKRVVRDPQGIRAWVAWRNRCQNRDVRQYVQGCGV [V20F]	0.86 kcal/mol
MKALIVLGLVLLSVTVQGKLFERCELARTLKRLGMDGYRGISLANWMCLAKWESGYNTRATNYNAGDRSTDYGIFQINSRYWCNDGKTPGAVNACHLSCSALLQDNIADAVACAKRVVRDPQGIRAWVAWRNRCQNRDVRQYVQGCGV [V20L]	0.05 kcal/mol
MKALIVLGLVLLSVTVQGKVFERCELARTLKRLGMDGYRGISLANWMCLAKWESGYNTRATNYNAGDRSTDYGIFQINSRYWCNDGKTPGAVNACHLSCSALLQDNIADAVACAKRVVRDPQGIRAWFAWRNRCQNRDVRQYVQGCGV [V128F]	0.05 kcal/mol

Same assay, conditions: Homo sapiens; pH 2.7; Thermal; DSC; glycine-HCl 0.05 M; reversible: yes; structure 1LZ1; whole UniProt chain shown

Variant	Tm	change of melting temperature, mutant - wild type (higher = more stable)	heat capacity change of unfolding	unfolding enthalpy (calorimetric)
MKALIVLGLVLLSVTVQGKVFERCELARTLKRLGMDGYRGISLANWMCLAKWESGYNTRATNYNAGDRSTDYGIFQINSRYWCNDGKTPGAFNACHLSCSALLQDNIADAVACAKRVVRDPQGIRAWVAWRNRCQNRDVRQYVQGCGV [V92F]	64 °C and 64.9 °C	-0.9 °C	1.34 kcal/mol/K	110 kcal/mol
MKALIVLGLVLLSVTVQGKVFERCELARTLKRLGMDGYRGISLANWMCLAKWESGYNTRATNYNAGDRSTDYGIFQINSRYWCNDGKTPGAINACHLSCSALLQDNIADAVACAKRVVRDPQGIRAWVAWRNRCQNRDVRQYVQGCGV [V92I]	66.6 °C and 64.9 °C	1.7 °C	1.2 kcal/mol/K	88.4 kcal/mol
MKALIVLGLVLLSVTVQGKFFERCELARTLKRLGMDGYRGISLANWMCLAKWESGYNTRATNYNAGDRSTDYGIFQINSRYWCNDGKTPGAVNACHLSCSALLQDNIADAVACAKRVVRDPQGIRAWVAWRNRCQNRDVRQYVQGCGV [V20F]	62.2 °C and 64.9 °C	-2.7 °C	1.63 kcal/mol/K	110 kcal/mol
MKALIVLGLVLLSVTVQGKLFERCELARTLKRLGMDGYRGISLANWMCLAKWESGYNTRATNYNAGDRSTDYGIFQINSRYWCNDGKTPGAVNACHLSCSALLQDNIADAVACAKRVVRDPQGIRAWVAWRNRCQNRDVRQYVQGCGV [V20L]	64.5 °C and 64.7 °C and 64.9 °C	-0.2 °C	1.22 kcal/mol/K	109 kcal/mol
MKALIVLGLVLLSVTVQGKVFERCELARTLKRLGMDGYRGISLANWMCLAKWESGYNTRATNYNAGDRSTDYGIFQINSRYWCNDGKTPGAVNACHLSCSALLQDNIADAVACAKRVVRDPQGIRAWFAWRNRCQNRDVRQYVQGCGV [V128F]	64.7 °C and 64.9 °C	-0.2 °C	1.7 kcal/mol/K	101 kcal/mol

Same assay, conditions: Homo sapiens; pH 2.84; Thermal; DSC; glycine-HCl 0.05 M; reversible: yes; structure 1LZ1; whole UniProt chain shown

Variant	Tm	unfolding enthalpy (calorimetric)
MKALIVLGLVLLSVTVQGKVFERCELARTLKRLGMDGYRGISLANWMCLAKWESGYNTRATNYNAGDRSTDYGIFQINSRYWCNDGKTPGAFNACHLSCSALLQDNIADAVACAKRVVRDPQGIRAWVAWRNRCQNRDVRQYVQGCGV [V92F]	66.3 °C	112 kcal/mol

Same assay, conditions: Homo sapiens; pH 3.1; Thermal; DSC; glycine-HCl 0.05 M; reversible: yes; structure 1LZ1; whole UniProt chain shown

Variant	Tm	unfolding enthalpy (calorimetric)
MKALIVLGLVLLSVTVQGKVFERCELARTLKRLGMDGYRGISLANWMCLAKWESGYNTRATNYNAGDRSTDYGIFQINSRYWCNDGKTPGAFNACHLSCSALLQDNIADAVACAKRVVRDPQGIRAWVAWRNRCQNRDVRQYVQGCGV [V92F]	70.5 °C	117 kcal/mol

Same assay, conditions: Homo sapiens; pH 3.23; Thermal; DSC; glycine-HCl 0.05 M; reversible: yes; structure 1LZ1; whole UniProt chain shown

Variant	Tm	unfolding enthalpy (calorimetric)
MKALIVLGLVLLSVTVQGKVFERCELARTLKRLGMDGYRGISLANWMCLAKWESGYNTRATNYNAGDRSTDYGIFQINSRYWCNDGKTPGAFNACHLSCSALLQDNIADAVACAKRVVRDPQGIRAWVAWRNRCQNRDVRQYVQGCGV [V92F]	72.4 °C	120 kcal/mol

Same assay, conditions: Homo sapiens; pH 3.4; Thermal; DSC; glycine-HCl 0.05 M; reversible: yes; structure 1LZ1; whole UniProt chain shown

Variant	Tm	unfolding enthalpy (calorimetric)
MKALIVLGLVLLSVTVQGKVFERCELARTLKRLGMDGYRGISLANWMCLAKWESGYNTRATNYNAGDRSTDYGIFQINSRYWCNDGKTPGAFNACHLSCSALLQDNIADAVACAKRVVRDPQGIRAWVAWRNRCQNRDVRQYVQGCGV [V92F]	75.6 °C	124 kcal/mol

Same assay, conditions: Homo sapiens; pH 2.67; Thermal; DSC; glycine-HCl 0.05 M; reversible: yes; structure 1LZ1; whole UniProt chain shown

Variant	Tm	unfolding enthalpy (calorimetric)
MKALIVLGLVLLSVTVQGKVFERCELARTLKRLGMDGYRGISLANWMCLAKWESGYNTRATNYNAGDRSTDYGIFQINSRYWCNDGKTPGAINACHLSCSALLQDNIADAVACAKRVVRDPQGIRAWVAWRNRCQNRDVRQYVQGCGV [V92I]	66.1 °C	89.9 kcal/mol

Same assay, conditions: Homo sapiens; pH 2.8; Thermal; DSC; glycine-HCl 0.05 M; reversible: yes; structure 1LZ1; whole UniProt chain shown

Variant	Tm	unfolding enthalpy (calorimetric)
MKALIVLGLVLLSVTVQGKVFERCELARTLKRLGMDGYRGISLANWMCLAKWESGYNTRATNYNAGDRSTDYGIFQINSRYWCNDGKTPGAINACHLSCSALLQDNIADAVACAKRVVRDPQGIRAWVAWRNRCQNRDVRQYVQGCGV [V92I]	68.3 °C	92.5 kcal/mol
MKALIVLGLVLLSVTVQGKVFERCELARTLKRLGMDGYRGISLANWMCLAKWESGYNTRATNYNAGDRSTDYGIFQINSRYWCNDGKTPGAVNACHLSCSALLQDNIADAVACAKRVVRDPQGIRAWFAWRNRCQNRDVRQYVQGCGV [V128F]	66.3 °C	103 kcal/mol

Same assay, conditions: Homo sapiens; pH 3; Thermal; DSC; glycine-HCl 0.05 M; reversible: yes; structure 1LZ1; whole UniProt chain shown

Variant	Tm	unfolding enthalpy (calorimetric)
MKALIVLGLVLLSVTVQGKVFERCELARTLKRLGMDGYRGISLANWMCLAKWESGYNTRATNYNAGDRSTDYGIFQINSRYWCNDGKTPGAINACHLSCSALLQDNIADAVACAKRVVRDPQGIRAWVAWRNRCQNRDVRQYVQGCGV [V92I]	71.7 °C	96.6 kcal/mol

Same assay, conditions: Homo sapiens; pH 2.87; Thermal; DSC; glycine-HCl 0.05 M; reversible: yes; structure 1LZ1; whole UniProt chain shown

Variant	Tm	unfolding enthalpy (calorimetric)
MKALIVLGLVLLSVTVQGKFFERCELARTLKRLGMDGYRGISLANWMCLAKWESGYNTRATNYNAGDRSTDYGIFQINSRYWCNDGKTPGAVNACHLSCSALLQDNIADAVACAKRVVRDPQGIRAWVAWRNRCQNRDVRQYVQGCGV [V20F]	65 °C	110 kcal/mol

Same assay, conditions: Homo sapiens; pH 3.09; Thermal; DSC; glycine-HCl 0.05 M; reversible: yes; structure 1LZ1; whole UniProt chain shown

Variant	Tm	unfolding enthalpy (calorimetric)
MKALIVLGLVLLSVTVQGKFFERCELARTLKRLGMDGYRGISLANWMCLAKWESGYNTRATNYNAGDRSTDYGIFQINSRYWCNDGKTPGAVNACHLSCSALLQDNIADAVACAKRVVRDPQGIRAWVAWRNRCQNRDVRQYVQGCGV [V20F]	68.6 °C	116 kcal/mol

Same assay, conditions: Homo sapiens; pH 3.22; Thermal; DSC; glycine-HCl 0.05 M; reversible: yes; structure 1LZ1; whole UniProt chain shown

Variant	Tm	unfolding enthalpy (calorimetric)
MKALIVLGLVLLSVTVQGKFFERCELARTLKRLGMDGYRGISLANWMCLAKWESGYNTRATNYNAGDRSTDYGIFQINSRYWCNDGKTPGAVNACHLSCSALLQDNIADAVACAKRVVRDPQGIRAWVAWRNRCQNRDVRQYVQGCGV [V20F]	71.2 °C	121 kcal/mol

Same assay, conditions: Homo sapiens; pH 3.05; Thermal; DSC; glycine-HCl 0.05 M; reversible: yes; structure 1LZ1; whole UniProt chain shown

Variant	Tm	unfolding enthalpy (calorimetric)
MKALIVLGLVLLSVTVQGKLFERCELARTLKRLGMDGYRGISLANWMCLAKWESGYNTRATNYNAGDRSTDYGIFQINSRYWCNDGKTPGAVNACHLSCSALLQDNIADAVACAKRVVRDPQGIRAWVAWRNRCQNRDVRQYVQGCGV [V20L]	70.4 °C	116 kcal/mol

Same assay, conditions: Homo sapiens; pH 2.72; Thermal; DSC; glycine-HCl 0.05 M; reversible: yes; structure 1LZ1; whole UniProt chain shown

Variant	Tm	unfolding enthalpy (calorimetric)
MKALIVLGLVLLSVTVQGKVFERCELARTLKRLGMDGYRGISLANWMCLAKWESGYNTRATNYNAGDRSTDYGIFQINSRYWCNDGKTPGAVNACHLSCSALLQDNIADAVACAKRVVRDPQGIRAWFAWRNRCQNRDVRQYVQGCGV [V128F]	65.1 °C	101 kcal/mol

Same assay, conditions: Homo sapiens; pH 3.04; Thermal; DSC; glycine-HCl 0.05 M; reversible: yes; structure 1LZ1; whole UniProt chain shown

Variant	Tm	unfolding enthalpy (calorimetric)
MKALIVLGLVLLSVTVQGKVFERCELARTLKRLGMDGYRGISLANWMCLAKWESGYNTRATNYNAGDRSTDYGIFQINSRYWCNDGKTPGAVNACHLSCSALLQDNIADAVACAKRVVRDPQGIRAWFAWRNRCQNRDVRQYVQGCGV [V128F]	70.5 °C	110 kcal/mol
